According to US20140004107A1 (published 2014):

Columns and labels:
[1] = biological target: T1, human ST2 on human primary cells (human, UniProt Q01638 19-556); test: cell-based or functional assay
T1 sequence: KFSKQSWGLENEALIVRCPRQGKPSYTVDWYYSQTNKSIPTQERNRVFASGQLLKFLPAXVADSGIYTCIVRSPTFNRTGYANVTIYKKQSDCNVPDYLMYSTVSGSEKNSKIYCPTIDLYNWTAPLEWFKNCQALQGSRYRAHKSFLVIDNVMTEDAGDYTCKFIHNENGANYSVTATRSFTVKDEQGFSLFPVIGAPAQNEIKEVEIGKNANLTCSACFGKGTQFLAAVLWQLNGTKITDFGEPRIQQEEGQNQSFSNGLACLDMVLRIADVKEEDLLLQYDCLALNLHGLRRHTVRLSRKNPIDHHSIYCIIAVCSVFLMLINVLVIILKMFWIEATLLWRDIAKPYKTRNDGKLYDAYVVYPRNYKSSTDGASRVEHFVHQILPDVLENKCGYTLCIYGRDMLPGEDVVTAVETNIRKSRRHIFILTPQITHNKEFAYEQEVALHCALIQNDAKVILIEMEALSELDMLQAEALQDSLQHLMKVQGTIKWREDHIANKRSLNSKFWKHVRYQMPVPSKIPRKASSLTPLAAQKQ

[2] = biological target: T2, cynomolgus monkey ST2 on cynomolgus CD4+ T cells (cynomolgus monkey, UniProt Q01638 19-556 (human entry)); test: cell-based or functional assay
T2 chain: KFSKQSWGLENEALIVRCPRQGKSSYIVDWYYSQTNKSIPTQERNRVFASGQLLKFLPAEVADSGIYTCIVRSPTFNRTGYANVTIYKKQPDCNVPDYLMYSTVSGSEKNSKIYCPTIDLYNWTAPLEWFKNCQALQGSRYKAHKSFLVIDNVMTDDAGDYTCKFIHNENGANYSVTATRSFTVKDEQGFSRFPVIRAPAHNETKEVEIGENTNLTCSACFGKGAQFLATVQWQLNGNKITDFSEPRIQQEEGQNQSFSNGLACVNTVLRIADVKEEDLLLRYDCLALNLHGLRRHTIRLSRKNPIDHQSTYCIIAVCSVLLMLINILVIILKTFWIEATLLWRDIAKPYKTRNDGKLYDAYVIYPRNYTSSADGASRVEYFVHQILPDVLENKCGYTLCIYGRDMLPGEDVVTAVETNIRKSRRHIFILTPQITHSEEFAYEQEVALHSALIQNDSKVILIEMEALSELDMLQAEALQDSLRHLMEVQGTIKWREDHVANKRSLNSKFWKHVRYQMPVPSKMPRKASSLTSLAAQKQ

[3] = biological target: T1, human ST2 on human primary cells; test: cell-based or functional assay; remark: listed apart in the source
[4] = biological target: T1, human ST2 on human primary cells; test: cell-based or functional assay; remark: listed apart in the source
human ST2 (SPR analyte) [5] = biological target: T3, human ST2 (SPR analyte) (human, UniProt Q01638 19-322); test: SPR Biacore 4000, kd at pH 5.5 against kd at pH 7.4
T3 construct: The ST2 reagent injected in SPR; leader is 1-18; also called hu ST2
T3 sequence: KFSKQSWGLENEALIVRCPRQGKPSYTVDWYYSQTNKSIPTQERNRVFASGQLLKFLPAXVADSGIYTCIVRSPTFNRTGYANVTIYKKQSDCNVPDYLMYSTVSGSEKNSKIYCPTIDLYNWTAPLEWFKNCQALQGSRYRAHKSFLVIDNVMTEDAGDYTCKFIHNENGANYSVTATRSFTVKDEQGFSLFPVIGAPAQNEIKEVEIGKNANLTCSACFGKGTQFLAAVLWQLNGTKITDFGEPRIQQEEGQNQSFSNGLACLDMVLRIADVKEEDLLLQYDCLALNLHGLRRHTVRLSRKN
Method: (§1) The association (5 min) rates at pH 7.4 and dissociation (10 min) rates at pH 5.5 and 7.4 were monitored at a flow rate of 30 uL/min. The reference subtracted data was fit to a 1:1 model in Scrubber.

human ST2 (SPR analyte) [6] = biological target: T3, human ST2 (SPR analyte); test: SPR Biacore 3000, captured antibody, ST2 analyte, 25 C
[7] = biological target: T4, cynomolgus monkey ST2 (SPR analyte) (cynomolgus monkey, UniProt Q01638 19-322 (human entry)); test: as above
T4 construct: The cyno ST2 reagent injected in SPR; leader is 1-18; also called cy ST2
T4 chain: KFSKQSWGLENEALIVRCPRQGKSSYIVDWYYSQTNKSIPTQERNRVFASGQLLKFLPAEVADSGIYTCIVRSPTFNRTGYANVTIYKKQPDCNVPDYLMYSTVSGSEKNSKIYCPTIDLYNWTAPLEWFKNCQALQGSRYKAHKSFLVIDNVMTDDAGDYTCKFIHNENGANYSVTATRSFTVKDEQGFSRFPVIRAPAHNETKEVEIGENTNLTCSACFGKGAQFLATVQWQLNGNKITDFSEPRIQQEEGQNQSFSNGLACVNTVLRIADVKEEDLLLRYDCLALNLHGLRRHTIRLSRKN

human ST2 (SPR analyte) [8] = biological target: T3, human ST2 (SPR analyte); test: SPR Biacore 4000, association at pH 7.4, dissociation at pH 5.5 (estimated kd)
Method: as §1

human ST2 (SPR analyte) [9] = biological target: T3, human ST2 (SPR analyte); test: SPR Biacore 4000, association at pH 7.4, dissociation at pH 7.4 (estimated kd)
Method: as §1

[10] = biological target: T5, soluble human ST2-FLAG His (human, UniProt Q01638 19-322, limits assumed); test: AlphaScreen, biotinylated human IL-33 with human ST2-FH, antibody at 12.5 ug/ml
T5 construct: also called human ST2-FH; 6xhistidine tagged human ST2; not shown: FLAG and 6x histidine tags
T5 sequence: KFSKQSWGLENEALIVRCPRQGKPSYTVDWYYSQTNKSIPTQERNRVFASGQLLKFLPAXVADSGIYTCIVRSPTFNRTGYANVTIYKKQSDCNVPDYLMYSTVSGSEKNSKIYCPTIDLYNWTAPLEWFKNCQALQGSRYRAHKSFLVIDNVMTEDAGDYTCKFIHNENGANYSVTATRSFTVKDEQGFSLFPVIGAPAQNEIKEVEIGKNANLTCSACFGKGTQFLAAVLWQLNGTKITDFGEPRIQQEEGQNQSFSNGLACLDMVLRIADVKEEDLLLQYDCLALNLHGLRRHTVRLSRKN

[11] = biological target: T6, biotinylated human ST2-Fc (human, UniProt Q01638 19-331, biotinylated); test: AlphaScreen, IL-33 mediated association of biotinylated human ST2-Fc with human AcP-FH, antibody at 12.5 ug/ml
T6 construct: also called ST2-Fc fusion protein; not shown: human antibody Fc domain
T6 sequence: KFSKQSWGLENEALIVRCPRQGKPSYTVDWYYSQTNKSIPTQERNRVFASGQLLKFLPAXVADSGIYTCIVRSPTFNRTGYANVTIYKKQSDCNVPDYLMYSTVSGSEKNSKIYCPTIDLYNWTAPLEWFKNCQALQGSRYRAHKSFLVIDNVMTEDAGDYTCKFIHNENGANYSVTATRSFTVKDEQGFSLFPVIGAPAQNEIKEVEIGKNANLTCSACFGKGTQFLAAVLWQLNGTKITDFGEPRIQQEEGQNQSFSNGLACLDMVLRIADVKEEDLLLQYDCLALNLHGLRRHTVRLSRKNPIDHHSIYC
Method: In the second assay, antibodies were evaluated for the ability to inhibit the IL-33 mediated association of ST2 with the co-receptor AcP. […] The ST2/AcP AlphaScreen was conducted in 8 ul reactions in a 384 well optiplate (Perkin Elmer). […] After the addition of all assay components the plates were incubated overnight in the dark at room temperature. The next day the plates were read on a 2103 Envision multilable reader (Perkin Elmer) using the same parameters as above for the first assay.

IC50 of inhibition of human IL-33-induced IL-5 production from human CD4+ T cells [1]: 5.25 nM | IC-50, cynomolgus monkey CD4+ T cell IFNγ release assay (IL-33, IL-2 and IL-12p70 stimulation) [2]: 79.5 pM | IC-50, human eosinophil IL-8 release assay (IL-33 and IL-3 stimulation) [3]: 52.8 pM | IC50 of inhibition of IL-33-dependent IFN-γ response of human NK cells (IL-33 10 ng/mL plus IL-12) [4]: 0.0412 µg/mL | pH 5.5/pH 7.4 koff fold change (human ST2 (SPR analyte) [5]): 8 fold | Kd (human ST2 (SPR analyte) [6]): 0.0339 nM | koff (human ST2 (SPR analyte) [6]): 1.13e-05 s⁻¹ | kon (human ST2 (SPR analyte) [6]): 333000 M⁻¹ s⁻¹ | Kd [7]: 0.0322 nM | koff [7]: 1.16e-05 s⁻¹ | kon [7]: 360000 M⁻¹ s⁻¹ | koff (human ST2 (SPR analyte) [8]): 0.000238 s⁻¹ | koff (human ST2 (SPR analyte) [9]): 2.98e-05 s⁻¹ | % inhib ST2-IL33 AS 12.5 ug/ml [10]: 99.2% | % inhib ST2-AcP AS 12.5 ug/ml [11]: 96.4%
B1: Ab2 (antibody, human IgG2, kappa, V domains shown)
VH: EVQLVQSGAEVKKPGESLKISCKGSGYSFTNYWIGWVRQMPGKGLEWMGIIYPGNSDTRFSPSFQGQVTISADKSITTAYLQWSSLKASDTAMYYCARHGTSSDYYGLDVWGQGTTVTVSS
VL: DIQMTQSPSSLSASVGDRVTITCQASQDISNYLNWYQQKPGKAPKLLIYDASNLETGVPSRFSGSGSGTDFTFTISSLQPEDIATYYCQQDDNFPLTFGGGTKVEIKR
notes: fully human anti-ST2 antibody
